Biological target: archaeal KEOPS complex (pfuPcc1, mjKae1, mjBud32, mjCgi121) (Pyrococcus furiosus | Methanococcus jannaschii) (UniProt Q8TZI1)
Assay: SEC-MALS

archaeal KEOPS complex (pfuPcc1, mjKae1, mjBud32, mjCgi121) (from UniProt Q8TZI1 1-82; Q58530 1-328; Q58530 1-535; Q57646 1-145)
stoichiometry N: 2

— publication PMC5001605
